The source of these data is article PMC11912399.

For orientation: Kd means the constant that tells how readily two partners part at equilibrium. A lower Kd goes with higher affinity.

For one assay, the target named is CrImpαΔIBB (Chlamydomonas reinhardtii importin α IPA1, Cre04.g215850, lacking the autoinhibitory IBB domain) (Chlamydomonas reinhardtii). As to the kind of experiment: MST.
“SN Cas9 (Cas9 with the SV40TAg NLS fused to its N-terminus) (enzyme)” registered a Kd of 11.4 nM.
Still for that read-out and setting: the same measure for “DN Cas9 (Cas9 with the VirD2^O NLS fused to its N-terminus) (enzyme)”: 4.48 nM.

The target is the same in a further assay. As to the kind of experiment: ELISA. In general terms: In an ELISA, binding on a coated surface is turned into a signal by an enzyme label.
Substance “DC Cas9 (Cas9 with the VirD2^O NLS fused to its C-terminus) (enzyme)” gave a Kd of 5.01 nM.
As for “PN Cas9 (Cas9 with the putative endogenous CrPAP1 NLS fused to its N-terminus) (enzyme)”, the dissociation constant Kd was found to be 17.1 nM.
Consider “EN Cas9 (Cas9 with the VirE2^O NLS fused to its N-terminus) (enzyme)”, for which the Kd turned out to be 7.81 nM.
The substance “EC Cas9 (Cas9 with the VirE2^O NLS fused to its C-terminus) (enzyme)” had a Kd of 6.9 nM.
The substance “SC Cas9 (Cas9 with the SV40TAg NLS fused to its C-terminus) (enzyme)” had a Kd of 9.21 nM.
“D^NopN Cas9 (Cas9 with the nopaline-type VirD2^N NLS fused to its N-terminus) (enzyme)” displayed a Kd of 7.88 nM.
“SN Cas9 (Cas9 with the SV40TAg NLS fused to its N-terminus) (enzyme)” had a dissociation constant (Kd) of 8.73 nM.
In the case of “DN Cas9 (Cas9 with the VirD2^O NLS fused to its N-terminus) (enzyme)”, the equilibrium dissociation constant (Kd) is 4.79 nM.
Regarding “D^R15AN Cas9 (DN Cas9 with R15A in the VirD2^O NLS) (enzyme)”, the Kd was 15.2 nM. This Kd lies about 3.2-fold higher than the previous one.
Substance “D^K1AR2AR15AN Cas9 (DN Cas9 with K1A, R2A and R15A in the VirD2^O NLS) (enzyme)” had an equilibrium dissociation constant (Kd) of 42.6 nM.
Still for that read-out and setting: the same measure for “D^K1AR2AN Cas9 (DN Cas9 with K1A and R2A in the VirD2^O NLS) (enzyme)”: 13.3 nM.
